Reference: patent publication US6645762B2, “Synthases” (The Salk Institute for Biological Studies, priority 1998, dated 2003)

What was measured:
Assay type in all cases: biochemical
[1] = Sesquiterpene synthase activity assay with radiolabelled FPP (Ag-TLC and GC/MS product analysis); conditions: for products of FPP turnover, analyzed by Ag-TLC: radiolabelled FPP, FIG. 4
Method: (§1) Synthase activity assays were carried out based on the assay described in Vogeli and Chappell, Plant Physiol. 94:1860 (1990) and Vogeli, et al., Plant Physiol. 93:182 (1990). In general, radio-labeled (^3H or ^14C) substrate was incubated with enzyme at room temperature in a buffered magnesium salt solution (200 mM Tris, pH 8, 50 mM Mg chloride, 1 mM DTT, unless otherwise noted); hydrocarbon products were then selectively extracted into an organic solvent such as hexane. The hexane extract generally was treated with silica gel to remove prenyl alcohols and other oxygenated compounds generated by non-enzymatic hydrolysis of substrate, which partition inefficiently into hexane. Hydrocarbon products present in the hexane phase were quantitated by scintillation counting.
(§2) Substrate concentrations typically ranged from 0.1 nanomolar to 100 micromolar. In some assays, the substrate was not radiolabeled. Reactions generally were carried out in triplicate for each substrate concentration. Protein concentration was determined by the Bradford method. For determination of steady-state kinetic parameters, enzyme concentrations were chosen such that generation of products over time was linear throughout the course of the reaction.
(§3) Diterpene synthase assays typically were carried out using ^3H geranylgeranyl diphosphate (GGPP) and enzyme in 250 mM Tris, 10 mM Mg chloride, 1 mM DTT, pH 8.0. Sesquiterpene synthase assays typically were carried out using ^14C or ^3H FPP and enzyme in 100 mM Tris, 30 mM Mg chloride, 1 mM DTT, pH 8.0. Monoterpene synthase assays typically were carried out using ^3H GPP and enzyme. As a control for nonspecific binding of GPP by protein, identical reactions were set up which contained BSA, rather than enzyme.
(§4) Terpenoid hydrocarbon products are not readily separated by thin layer chromatography on normal or reverse-phase plates; however, some can be separated by argentation TLC (Ag-TLC), in which silica plates are first treated with silver nitrate. Ag-TLC described here generally followed the procedure described by Back et al., Arch. Biochem. Biophys. 315:527 (1994). A silica TLC plate was dipped in 15% silver nitrate (aqueous), then dried for 3-5 hours at 110° C. After spotting of tritiated enzymatic products (solvent extract), the plate was developed in benzene:hexane, ethyl acetate (50:50:1, by volume), sprayed with En^3Hance (NEN) fluorography spray, placed on film, and exposed for several days to several weeks. Long exposure times were generally necessary, as silver-nitrate treatment of the TLC plate appeared to cause quenching of the fluorography reagents fluorescence. Alternatively, ^14C labelled products were detected after one to two days without the use of fluorography spray.
Products of FPP turnover by the purified TEAS W273S mutant were analyzed by argentation thin-layer chromatography (Ag-TLC).
Reactions with FPP as substrate were carded out with ^14C FPP (9 μm) and enzyme (160 μm) in reaction buffer (20 μl). After incubating for 30 minutes at room temperature, products made by TEAS C440W/W273S were analyzed by Ag-TLC. […] The new product was distinct from both 5-epi-aristolochene and vetispiradiene. Several other products were also formed, many of which migrated slowly upon argentation TLC.
Reactions with radiolabeled FPP and TEAS Y520F enzyme were carried out essentially as described above. Reaction products were analysed by Ag-TLC and by GC/MS.

[2] = Diterpene synthase activity assay with radiolabelled GGPP (solvent extraction, scintillation counting, Ag-TLC); conditions: for hexane-extractable products formed from GGPP, analyzed by Ag-TLC: overnight incubation at room temperature, FIG. 3
Method: as §1
A subsequent extraction with a more polar organic solvent such as ethyl acetate was sometimes carried out. Oxygenated compounds more efficiently partition into ethyl acetate-type solvents. Compounds present in the ethyl acetate phase were also quantitated by scintillation counting.
as §2, §3, §4
The TEAS W273S enzyme and radiolabelled GGPP were incubated as described above and hydrocarbon products were extracted with hexane. Oxygenated products were then extracted with ethyl acetate.
The mutant TEAS C440W1W273S protein contains a tryptophan residue at position 440 and a serine residue at position 273. Assays with GGPP were carried out using 0.5 micromolar ^3H GGPP, various concentrations of unlabelled GGPP (Echelon), and enzyme. Reactions were incubated for 60 minutes at room temperature. […] Hexane-extractable products of GGPP turnover by the double mutant were analyzed by Ag-TLC. The products included two species (Rf=0.11 and 0.28) that were distinct from the hydrolysis product geranyl geraniol (Rf=0.0).To verify that products generated by TEAS C440W/W273S from GGPP were not the hydrolysis product, geranylgeraniol, a sample was analyzed by Ag-TLC. […]

[3] = Alkylation of enzyme by radiolabeled FPP; conditions: dependent upon the presence of MgCl2
Method: Reactions to determine the products made by TEAS W273E using FPP as substrate were carried out essentially as described above, using radioiabeled FPP. […] The alkylation was dependent upon the presence of MgCl2 in the reaction mixture. In control experiments, boiled W273E-TEAS, as well as wild-type TEAS and BSA, were not alkylated.

Row | Molecule | products of FPP turnover, hexane extract analyzed by GC/MS [1] | products of FPP turnover, analyzed by Ag-TLC [1] | counts in hexane and ethyl acetate extracts after incubation with radiolabelled GGPP ([2]; hydrocarbon products extracted with hexane, oxygenated products with ethyl acetate, compared with buffer alone) | hexane-extractable products formed from GGPP, analyzed by Ag-TLC [2] | conversion of GGPP to hexane-extractable products ([2]; 0.5 micromolar 3H GGPP plus unlabelled GGPP, 60 minutes at room temperature) | alkylation of the enzyme by FPP [3]
1 | TEAS W273S: TEAS mutant with serine at position 273 (protein, UniProt Q40577 1-548, looked up, variant W273S) 5-epi-aristolochene synthase: MASAAVANYEEEIVRPVADFSPSLWGDQFLSFSIKNQVAEKYAKEIEALKEQTRNMLLATGMKLADTLNLIDTIERLGISYHFEKEIDDILDQIYNQNSNCNDLCTSALQFRLLRQHGFNISPEIFSKFQDENGKFKESLASDVLGLLNLYEASHVRTHADDILEDALAFSTIHLESAAPHLKSPLREQVTHALEQCLHKGVPRVETRFFISSIYDKEQSKNNVLLRFAKLDFNLLQMLHKQELAQVSRWWKDLDFVTTLPYARDRVVECYFSALGVYFEPQYSQARVMLVKTISMISIVDDTFDAYGTVKELEAYTDAIQRWDINEIDRLPDYMKISYKAILDLYKDYEKELSSAGRSHIVCHAIERMKEVVRNYNVESTWFIEGYTPPVSEYLSNALATTTYYYLATTSYLGMKSATEQDFEWLSKNPKILEASVIICRVIDDTATYEVEKSRGQIATGIECCMRDYGISTKEAMAKFQNMAETAWKDINEGLLRPTPVSTEFLTPILNLARIVEVTYIHNLDGYTHPEKVLKPHIINLLVDSIKI | at least four terpene hydrocarbons | distinct from both 5-epi-aristolochene (Rf=0.78) and vetispiradiene (Rf=0.63) | counts that were significantly higher for both the hexane and ethyl acetate extracts | distinct from the products made by acid-catalyzed loss of diphosphates from GGPP |  | 
2 | TEAS C440W/W273S: TEAS double mutant, tryptophan at position 440 and serine at position 273, SEQ ID NO:10 (protein) MASAAVANYEEEIVRPVADFSPSLWGDQFLSFSIDNQVAEKYAQEIEALKEQTRSMLLATGRKLADTLNLIDIIERLGISYHFEKEIDEILDQIYNQNSNCNDLCTSALQFRLLRQHGFNISPEIFSKFQDENGKFKESLASDVLGLLNLYEASHVRTHADDILEDALAFSTIHLESAAPHLKSPLREQVTHALEQCLHKGVPRVETRFFISSIYDKEQSKNNVLLRFAKLDFNLLQMLHKQELAQVSRWWKDLDFVTTLPYARDRVVECYFSALGVYFEPQYSQARVMLVKTISMISIVDDTFDAYGTVKELEAYTDAIQRWDINEIDRLPDYMKISYKAILDLYKDYEKELSSAGRSHIVCHAIERMKEVVRNYNVESTWFIEGYMPPVSEYLSNALATTTYYYLATTSYLGMKSATEQDFEWLSKNPKILEASVIIWRVIDDTATYEVEKSRGQIATGIECCMRDYGISTKEAMAKFQNMAETAWKDINEGLLRPTPVSTEFLTPILNLARIVEVTYIHNLDGYTHPEKVLKPHIINLLVDSIKI |  |  |  | different from those generated by non-enzymatic degradation of geranylgeranyl diphosphate | converted GGPP to hexane-extractable products | 
3 | TEAS C440W: TEAS mutant with tryptophan at position 440 (protein, UniProt Q40577 1-548, looked up, variant C440W) 5-epi-aristolochene synthase: MASAAVANYEEEIVRPVADFSPSLWGDQFLSFSIKNQVAEKYAKEIEALKEQTRNMLLATGMKLADTLNLIDTIERLGISYHFEKEIDDILDQIYNQNSNCNDLCTSALQFRLLRQHGFNISPEIFSKFQDENGKFKESLASDVLGLLNLYEASHVRTHADDILEDALAFSTIHLESAAPHLKSPLREQVTHALEQCLHKGVPRVETRFFISSIYDKEQSKNNVLLRFAKLDFNLLQMLHKQELAQVSRWWKDLDFVTTLPYARDRVVECYFWALGVYFEPQYSQARVMLVKTISMISIVDDTFDAYGTVKELEAYTDAIQRWDINEIDRLPDYMKISYKAILDLYKDYEKELSSAGRSHIVCHAIERMKEVVRNYNVESTWFIEGYTPPVSEYLSNALATTTYYYLATTSYLGMKSATEQDFEWLSKNPKILEASVIIWRVIDDTATYEVEKSRGQIATGIECCMRDYGISTKEAMAKFQNMAETAWKDINEGLLRPTPVSTEFLTPILNLARIVEVTYIHNLDGYTHPEKVLKPHIINLLVDSIKI | single major sesquiterpene hydrocarbon product as well as a small number of minor hydroxylated products | at least one major terpenoid hydrocarbon product |  | no hexane-extractable products were detectable |  | 
4 | boiled W273E-TEAS: boiled W273E-TEAS used as control in alkylation experiment (protein, UniProt Q40577 1-548, looked up, variant W273E, heat-denatured (boiled), boiled W273E-TEAS used as control in alkylation experiment) 5-epi-aristolochene synthase: MASAAVANYEEEIVRPVADFSPSLWGDQFLSFSIKNQVAEKYAKEIEALKEQTRNMLLATGMKLADTLNLIDTIERLGISYHFEKEIDDILDQIYNQNSNCNDLCTSALQFRLLRQHGFNISPEIFSKFQDENGKFKESLASDVLGLLNLYEASHVRTHADDILEDALAFSTIHLESAAPHLKSPLREQVTHALEQCLHKGVPRVETRFFISSIYDKEQSKNNVLLRFAKLDFNLLQMLHKQELAQVSRWWKDLDFVTTLPYARDRVVECYFEALGVYFEPQYSQARVMLVKTISMISIVDDTFDAYGTVKELEAYTDAIQRWDINEIDRLPDYMKISYKAILDLYKDYEKELSSAGRSHIVCHAIERMKEVVRNYNVESTWFIEGYTPPVSEYLSNALATTTYYYLATTSYLGMKSATEQDFEWLSKNPKILEASVIICRVIDDTATYEVEKSRGQIATGIECCMRDYGISTKEAMAKFQNMAETAWKDINEGLLRPTPVSTEFLTPILNLARIVEVTYIHNLDGYTHPEKVLKPHIINLLVDSIKI |  |  |  |  |  | not alkylated
5 | TEAS Y520F: TEAS protein in which Tyr520 is changed to Phe, SEQ ID NO:6 (protein) MASAAVANYEEEIVRPVADFSPSLWGDQFLSFSIDNQVAEKYAQEIEALKEQTRSMLLATGRKLADTLNLIDIIERLGISYHFEKEIDEILDQIYNQNSNCNDLCTSALQFRLLRQHGFNISPEIFSKFQDENGKFKESLASDVLGLLNLYEASHVRTHADDILEDALAFSTIHLESAAPHLKSPLREQVTHALEQCLHKGVPRVETRFFISSIYDKEQSKNNVLLRFAKLDFNLLQMLHKQELAQVSRWWKDLDFVTTLPYARDRVVECYFWALGVYFEPQYSQARVMLVKTISMISIVDDTFDAYGTVKELEAYTDAIQRWDINEIDRLPDYMKISYKAILDLYKDYEKELSSAGRSHIVCHAIERMKEVVRNYNVESTWFIEGYMPPVSEYLSNALATTTYYYLATTSYLGMKSATEQDFEWLSKNPKILEASVIICRVIDDTATYEVEKSRGQIATGIECCMRDYGISTKEAMAKFQNMAETAWKDINEGLLRPTPVSTEFLTPILNLARIVEVTFIHNLDGYTHPEKVLKPHIINLLVDSIKI | same GC retention time as authentic germacrene A and the same mass spectrum as authentic germacrene A |  |  |  |  | 
